Reference: PMC6238531, “The ER morphology-regulating lunapark protein induces the formation of stacked bilayer discs” (Life Science Alliance, 2018)

Biological target: T1, SBP-tagged full-length human Lnp (human, UniProt Q9C0E8 1-428)
T1 construct: lunapark (Lnp), human, full length; a tobacco etch virus protease cut site stands between Lnp and the SBP tag; Membrane protein with two TM segments, kept in 0.05% Triton X-100 in the pull-down; also called lunapark; SBP-tagged human Lnp; source: S. cerevisiae (pRS425, GAL1 promoter), purified in Triton X-100 (streptavidin resin, biotin elution, SEC on Superose 6); not shown: SBP, C-terminal, kept
T1 sequence (looked up): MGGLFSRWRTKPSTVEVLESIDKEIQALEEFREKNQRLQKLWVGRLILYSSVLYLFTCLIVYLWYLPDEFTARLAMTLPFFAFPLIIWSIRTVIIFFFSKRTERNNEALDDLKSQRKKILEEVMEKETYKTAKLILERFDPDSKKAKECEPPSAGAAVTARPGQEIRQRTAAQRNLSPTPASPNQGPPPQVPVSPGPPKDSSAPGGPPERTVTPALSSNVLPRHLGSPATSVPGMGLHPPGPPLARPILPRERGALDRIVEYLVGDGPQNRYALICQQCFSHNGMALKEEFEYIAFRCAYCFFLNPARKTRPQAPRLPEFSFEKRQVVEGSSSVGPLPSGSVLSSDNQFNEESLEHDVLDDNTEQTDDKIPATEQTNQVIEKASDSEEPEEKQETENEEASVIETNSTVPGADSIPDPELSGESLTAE
Experiment: pull-down; SBP-tagged human Lnp mixed with His10-tagged Lnp (molar ratio 1:3 or 1:5), 1 h at 4°C in 20 mM Hepes pH 7.5, 100 mM KCl, 1 mM dithiothreitol, 0.05% Triton X-100; held on streptavidin resin, washed, eluted with 2 mM biotin; SDS-PAGE and Coomassie blue staining
Conditions: both partners purified

B1: His10-tagged full-length human Lnp (natural protein, UniProt Q9C0E8 1-428, looked up)
chain: T1 sequence (looked up)
notes: lunapark (Lnp), human, full length, cloned into pET21b; also called lunapark; source: E. coli BL21-CodonPlus (DE3)-RIPL, purified in Triton X-100 (Ni-NTA, SEC on Superose 6); not shown: His10, C-terminal, kept
  binding result: binds
